Laboratory results published in patent US20250282879A1.
Like-named read-outs stand apart in the source and are kept apart here.

Experiments:
[1] = target: marmoset IL-4R ECD (marmoset (Callithrix jacchus)) (UniProt Q0PIT7); experiment: SPR, direct setup, marmoset IL-4R ECD immobilized
[2] = target: cynomolgus IL-4R-Fc (cynomolgus monkey (Macaca fascicularis)); experiment: SPR, capture setup, cynomolgus IL-4R-Fc captured
[3] = target: human IL-4R on cells (HEK-Blue IL-4/IL-13 cells, human PBMC, human whole blood) (human) (UniProt P24394); experiment: cell-based or functional assay
[4] = target: cynomolgus IL-4R ECD (cynomolgus monkey (Macaca fascicularis)); experiment: SPR, direct setup, cynomolgus IL-4R ECD immobilized
Human IL-4R-Fc (human) = Human IL-4R-Fc (human) (UniProt P24394); experiment: SPR, hIL-4R-Fc captured, scFv analyte
[5] = target: recombinant human IL-31 protein (Peprotech) (human) (UniProt Q6EBC2); experiment: cell-based or functional assay
[6] = target: recombinant cynomolgus monkey IL-31 (ECD with His Tag, Sino Biological) (cynomolgus monkey); experiment: SPR, IL-31-His captured, scFv analyte (30 and 10 nM)
[7] = target: recombinant human IL-31 protein (Peprotech) (human) (UniProt Q6EBC2)
[8] = target: recombinant human IL-31 protein (Peprotech) (human) (UniProt Q6EBC2); remark: listed apart in the source
[9] = target: recombinant human IL-31 protein (Peprotech) (human) (UniProt Q6EBC2); remark: listed apart in the source
[10] = target: recombinant human IL-31 protein (Peprotech) (human) (UniProt Q6EBC2); remark: listed apart in the source
[11] = target: recombinant cynomolgus monkey IL-31 (ECD with His Tag, Sino Biological) (cynomolgus monkey)
[12] = target: recombinant cynomolgus monkey IL-31 (ECD with His Tag, Sino Biological) (cynomolgus monkey); experiment: SPR, IL-31-His captured, scFv analyte, screening mode
[13] = target: recombinant cynomolgus monkey IL-31 (ECD with His Tag, Sino Biological) (cynomolgus monkey); experiment: SPR, IL-31-His captured, scFv analyte, full titration mode

marmoset IL-4R ECD (marmoset (Callithrix jacchus)), sequence (Q0PIT7 entry or part of it limits assumed): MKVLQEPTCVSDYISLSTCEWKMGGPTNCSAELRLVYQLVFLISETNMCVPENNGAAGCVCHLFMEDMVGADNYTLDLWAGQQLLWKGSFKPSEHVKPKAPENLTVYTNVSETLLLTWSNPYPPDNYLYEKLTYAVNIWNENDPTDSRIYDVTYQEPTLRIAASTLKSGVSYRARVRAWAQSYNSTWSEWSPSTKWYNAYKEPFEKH
cynomolgus IL-4R-Fc (cynomolgus monkey (Macaca fascicularis)), sequence (chain, as listed by the source): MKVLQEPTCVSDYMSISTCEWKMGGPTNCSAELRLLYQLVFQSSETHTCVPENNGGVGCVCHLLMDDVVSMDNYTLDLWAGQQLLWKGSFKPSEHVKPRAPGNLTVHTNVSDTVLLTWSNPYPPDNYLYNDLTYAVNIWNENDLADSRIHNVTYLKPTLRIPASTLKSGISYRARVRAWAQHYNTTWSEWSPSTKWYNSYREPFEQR
cynomolgus IL-4R ECD (cynomolgus monkey (Macaca fascicularis)), sequence (A0A2K5 entry or part of it limits assumed): as the sequence (chain, as listed by the source) above
recombinant human IL-31 protein (Peprotech) (human), sequence (Q6EBC2 24-164 limits assumed): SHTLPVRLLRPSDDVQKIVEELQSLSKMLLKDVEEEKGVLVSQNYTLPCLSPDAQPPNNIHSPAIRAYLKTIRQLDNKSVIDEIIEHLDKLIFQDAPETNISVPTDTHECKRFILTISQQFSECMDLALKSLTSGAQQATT

B1: PRO1517 (scFv, V domains shown)
VH: EVQLVESGGGLVQPGGSLRLSCAASGFSSSSAHYMCWVRQAPGKGLEWIGCIYAGSRGSTYYASWAKGRFTISRDNSKNTVYLQMNSLRAEDTAVYYCARAAFVNRGVSWIWPYYFSLWGQGTLVTVSS
VL: DIQMTQSPSSLSASVGDRVTITCQASEDIESYLAWYQQKPGKAPKLLIYRASTLAYGVPSRFSGSGSGTDFTLTISSLQPEDFATYYCLGSSYSTGSNIFGTGTKVTVLG
- Kd [1]: 0.392 nM
- koff [1]: 0.00105 s⁻¹
- kon [1]: 2.67e+06 M⁻¹ s⁻¹
- Kd [2]: 0.0946 nM
- koff [2]: 0.000182 s⁻¹
- kon [2]: 1.92e+06 M⁻¹ s⁻¹
- IC50, neutralization of hIL-4-induced signaling, stat-6 reporter gene assay [3]: 1.44 ng/mL
- IC50, neutralization of hIL-13-induced signaling, stat-6 reporter gene assay [3]: 1.83 ng/mL
- rel. IC50 (IC50, dupilumab/IC50, test sample), hIL-4 [3]: 0.39
- rel. IC50 (IC50, dupilumab/IC50, test sample), hIL-13 [3]: 0.57
- Kd [4]: 0.681 nM
- koff [4]: 0.000404 s⁻¹
- kon [4]: 594000 M⁻¹ s⁻¹
- Kd (Human IL-4R-Fc (human)): 0.0055 nM
- koff (Human IL-4R-Fc (human)): 1.95e-05 s⁻¹
- kon (Human IL-4R-Fc (human)): 3.55e+06 M⁻¹ s⁻¹

B2: PRO1898 (scFv, V domains shown)
VH: EVQLVESGGGLVQPGGSLRLSCAASGFSSSSAHYMCWVRQAPGKGLEWIGCIYAGSRGSTYYASWAKGRFTISRDNSKNTVYLQMNSLRAEDTAVYYCARAAFVNRGVSWIWPYYFSLWGQGTLVTVSS
VL: DIQMTQSPSSLSARVGDRVTITCQASEDIESYLAWYQQKPGKAPKLLIYRASTLAYGVPSRFSGSGSGRDFTLTISSLQPEDFATYYCLGSSYSTGSNIFGTGTKVTVLG
- IC50, neutralization of hIL-4 induced signaling, stat-6 reporter gene assay [3]: 1 ng/mL
- IC50, neutralization of hIL-13 induced signaling, stat-6 reporter gene assay [3]: 1.15 ng/mL
- rel. IC50 (IC50, dupilumab/IC50, test sample), hIL-4 [3]: 1.15
- rel. IC50 (IC50, dupilumab/IC50, test sample), hIL-13 [3]: 0.87

B3: PRO1899 (scFv, V domains shown)
VH: EVQLVESGGGRVQPGGSLRLSCAASGFSSSSAHYMCWVRQAPGKGLEWIGCIYAGSRGSTYYASWAKGRFTISKASSTTVYLQMNSLRAEDTATYYCARAAFVNRGVSWIWPYYFSLWGQGTQVTVSS
VL: DIQMTQSPSSLSASVGDRVTITCQASEDIESYLAWYQQKPGKAPKLLIYRASTLAYGVPSRFSGSGSGTDFTLTISSLQPEDFATYYCLGSSYSTGSNIFGTGTKVTVLG
- IC50, neutralization of hIL-4 induced signaling, stat-6 reporter gene assay [3]: 0.71 ng/mL
- IC50, neutralization of hIL-13 induced signaling, stat-6 reporter gene assay [3]: 0.56 ng/mL
- rel. IC50 (IC50, dupilumab/IC50, test sample), hIL-4 [3]: 1.61
- rel. IC50 (IC50, dupilumab/IC50, test sample), hIL-13 [3]: 1.8

B4: PRO1900 (scFv, V domains shown)
VH: QSQLVESGGGRVQPGGSLRLSCAASGFSFSANYWICWVRQAPGKGLEWIVCIYIGSRADTYYAPWAKGRFTISKDNSKNTVYLQMNSLRAEDTATYFCARFSSGIYDLDRFFLWGQGTQVTVSS
V domain: AFQLTQSPSSLSASVGDRVTITCQASQSIDSWLAWYQQKPGKPPKLLIYQASKLASGVPSRFSGSGSGTDYTLTISSLQPEDFATYYCQTYYGGGHIGWGFGTGTKVTV
- IC50, neutralization of hIL-31-induced signaling in IL-31RA/OSMR dimerization assay [5]: 8.21 ng/mL
- rel. IC50 (IC50, BMS-981164/IC50, test sample) [5]: 0.73
- Kd [6]: 1.07 nM
- koff [6]: 0.000594 s⁻¹
- kon [6]: 554000 M⁻¹ s⁻¹

B5: PRO1903 (scFv, V domains shown)
VH: QSQLVESGGGLVQPGGSLRLSCAASGFSFSANYWICWVRQAPGKGLEWIVCIYIGSRADTYYAPWAKGRFTISKDNSKNTVYLQMNSLRAEDTAVYFCARFSSGIYDLDRFFLWGQGTLVTVSS
V domain: AFQLTQSPSSLSASVGDRVTITCQASQSIESWLAWYQQKPGKPPKLLIYQASKLASGVPSRFSGSGSGTDYTLTISSLQPEDFATYYCQTYYGGGHIGWGFGTGTKVTV
- IC50, neutralization of hIL-31-induced signaling in IL-31RA/OSMR dimerization assay [5]: 7.98 ng/mL
- rel. IC50 (IC50, BMS-981164/IC50, test sample) [5]: 1.49
- Kd [6]: 1.39 nM
- koff [6]: 0.000605 s⁻¹
- kon [6]: 434000 M⁻¹ s⁻¹

B6: BMS-981164 (antibody, from another filing, V domains shown)
VH: QVQLVQSGAEVKKPGASVKVSCKASGYTLTRYWMQWVRQAPGQGLEWMGAIYPGDGDTRYSQKFQGRVTLTADKSTSTAYMELSSLRSEDTAVYYCAFPDGYYAAPYGMDYWGQGTLVTVSS
VL: DIQMTQSPSSLSASVGDRVTITCRASGNIHNYLAWYQQKPGKVPKLLIYNAKTLADGVPSRFSGSRSETQYSLTISSLQPEDVATYYCQHFWSTPWTFGQGTKVEIKR
- IC50 (read off the curve), human IL-31-induced IL-31RA/OSMR dimerization [7]: 0.2 nM
- IC50 (read off the curve), human IL-31-induced IL-31RA/OSMR dimerization [8]: 0.06 nM
- IC50 (read off the curve), human IL-31-induced IL-31RA/OSMR dimerization [9]: 0.07 nM
- IC50 (read off the curve), human IL-31-induced IL-31RA/OSMR dimerization [10]: 0.1 nM
- IC50, cynomolgus IL-31-induced IL-31RA/OSMR dimerization (RLU) [table under the graph] [11]: 0.178 nM

B7: PRO1643 (scFv, V domains shown)
VH: QSQLVESGGGLVQPGGSLRLSCAASGFSFSANYWICWVRQAPGKGLEWIVCIYIGSRADTYYAPWAKGRFTISKDNSKNTVYLQMNSLRAEDTAVYFCARFSSGIYDLDRFFLWGQGTLVTVSS
V domain: AFQLTQSPSSLSASVGDRVTITCQASQSIDSWLAWYQQKPGKPPKLLIYQASKLASGVPSRFSGSGSGTDYTLTISSLQPEDFATYYCQTYYGGGHIGWGFGTGTKVTV
- Kd [12]: 0.583 nM
- koff [12]: 0.000444 s⁻¹
- kon [12]: 761000 M⁻¹ s⁻¹
- Kd [6]: 1.17 nM
- koff [6]: 0.000587 s⁻¹
- kon [6]: 501000 M⁻¹ s⁻¹
- Kd [13]: 0.557 nM
- koff [13]: 0.000426 s⁻¹
- kon [13]: 764000 M⁻¹ s⁻¹
